# Measurements from article PMC11188170, “A comprehensive analysis of the WRKY family in soybean and functional analysis of GmWRKY164-GmGSL7c in resistance to soybean mosaic virus”.
# B1: GmGSL7c promoter W-box probe (dsDNA)
# DNA 1: TAGCCCAACTCATCAGAAGAAGGTCAATGTAATAGTA
# DNA 2: TACTATTACATTGACCTTCTTCTGATGAGTTGGGCTA
# Molecular target: GmWRKY164 (Glycine max, UniProt K7MND9 1-149)
# Assay: EMSA; 6 ug protein; 200-fold unlabelled probe used as competitor; LightShift Chemiluminescent EMSA kit binding reaction, 20 min, 6% native PAGE; buffer, salt, pH and temperature not stated
# Conditions: protein: recombinant; tags: His; label: 5' biotin; blunt
# GmWRKY164, sequence (K7MND9 entry or part of it): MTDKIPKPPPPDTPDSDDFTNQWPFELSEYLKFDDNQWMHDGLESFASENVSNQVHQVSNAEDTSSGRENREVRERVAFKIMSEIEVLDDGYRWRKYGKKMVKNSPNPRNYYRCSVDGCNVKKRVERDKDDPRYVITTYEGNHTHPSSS
binder,measurement,value
B1,binding result,binds
